Test results: article doi:10.1101/2024.11.26.625568

Legend:
dynein [1] = target: dynein (UniProt Q14204)
dynein [2] = target: dynein (UniProt Q14204); remark: listed apart in the source
dynein [3] = target: dynein (UniProt Q14204); remark: listed apart in the source

run frequency of DDN complexes, against wild-type NuMA FL (fold increase) (dynein [3]) | Substance | further results
 | Full-length NuMA (from UniProt Q14980 1-2115) (natural protein) | frequency of processive runs of DDN complexes, against NuMA 1-705 under the same conditions (fold less frequent) (dynein [1]): 10
 | NuMA 1-1699 (from UniProt Q14980 1-1699) (domain or fragment) | run frequency of DDN complexes in single-molecule motility assays, against the shorter NuMA fragments (dynein [2]): 5 fold lower
< 4 | NuMA FL S1969D (from UniProt Q14980 1-2115) (natural protein) | 
< 4 | NuMA FL T2055D (from UniProt Q14980 1-2115) (natural protein) | 
